This passage reports Kd results from patent US20230120167A1 (AFFILOGIC, published 2023).

One assay deals with T1, HSP110 (human, UniProt Q92598 1-858, limits assumed).
T1 construct: also called HSPH1; Hsp105

Another assay addresses T2, mouse PD-L1 (mouse, UniProt Q9EP73 19-238, limits assumed).
T2 construct: also called murine PDL1
The experiment in a line: Surface Plasmon Resonance.

A further assay concerns the target T3, human PD-L1 (human, UniProt Q9NZQ7 19-238, limits assumed).
T3 construct: also called PD-1 ligand 1; CD274
In words: Surface Plasmon Resonance.

T2 sequence (Q9EP73 19-238 limits assumed): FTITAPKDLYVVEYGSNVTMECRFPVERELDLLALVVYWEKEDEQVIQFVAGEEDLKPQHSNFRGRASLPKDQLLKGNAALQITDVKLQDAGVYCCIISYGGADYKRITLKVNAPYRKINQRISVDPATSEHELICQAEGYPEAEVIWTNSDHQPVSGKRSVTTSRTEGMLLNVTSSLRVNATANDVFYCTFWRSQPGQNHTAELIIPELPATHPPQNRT
T3 sequence (Q9NZQ7 19-238 limits assumed): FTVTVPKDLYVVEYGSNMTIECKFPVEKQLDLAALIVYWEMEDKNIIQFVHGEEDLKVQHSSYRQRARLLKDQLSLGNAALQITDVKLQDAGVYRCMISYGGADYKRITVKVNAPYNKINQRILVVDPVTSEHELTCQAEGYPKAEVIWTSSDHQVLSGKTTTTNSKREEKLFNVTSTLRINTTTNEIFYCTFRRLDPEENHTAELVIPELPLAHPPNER
T1 sequence (Q92598 whole entry): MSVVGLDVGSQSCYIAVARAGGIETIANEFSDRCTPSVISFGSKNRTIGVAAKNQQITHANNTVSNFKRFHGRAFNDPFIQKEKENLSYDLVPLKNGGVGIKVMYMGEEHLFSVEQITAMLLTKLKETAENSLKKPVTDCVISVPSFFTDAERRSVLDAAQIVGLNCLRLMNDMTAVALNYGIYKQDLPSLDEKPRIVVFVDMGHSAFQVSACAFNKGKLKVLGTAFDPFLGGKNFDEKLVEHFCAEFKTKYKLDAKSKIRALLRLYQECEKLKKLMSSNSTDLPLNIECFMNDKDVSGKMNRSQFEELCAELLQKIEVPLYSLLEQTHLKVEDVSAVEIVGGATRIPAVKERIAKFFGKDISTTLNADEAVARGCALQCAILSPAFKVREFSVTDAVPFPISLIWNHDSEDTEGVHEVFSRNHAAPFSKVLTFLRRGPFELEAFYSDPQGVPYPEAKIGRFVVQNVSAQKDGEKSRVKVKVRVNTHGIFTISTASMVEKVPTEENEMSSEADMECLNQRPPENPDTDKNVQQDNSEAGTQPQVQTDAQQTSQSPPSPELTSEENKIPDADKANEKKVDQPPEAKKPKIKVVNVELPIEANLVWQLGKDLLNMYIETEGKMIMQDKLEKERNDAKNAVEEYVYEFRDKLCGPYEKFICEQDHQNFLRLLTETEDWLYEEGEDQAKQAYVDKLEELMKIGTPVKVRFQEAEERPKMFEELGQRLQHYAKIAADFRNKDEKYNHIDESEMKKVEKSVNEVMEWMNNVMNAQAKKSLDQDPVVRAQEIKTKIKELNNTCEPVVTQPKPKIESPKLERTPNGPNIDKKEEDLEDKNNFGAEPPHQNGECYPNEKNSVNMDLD

B1: A-C2 (Sac7d variant binding to HSP110, SEQ ID NO: 27) (designed binder)
chain: MVKVKFMWRGEEKEVDTSKIWDVWRSGKTVYFHYDDNGKMGQGKVHEKDAPKELLDMLARAEREKK
notes: also called NF1; anti-HSP110 variant
B1 displayed a Kd with HSP110 of under 1 nM.

B2: B11 (Sac7d variant binding to PD-L1, SEQ ID NO: 21) (designed binder)
chain: MVKVKFVIGGEEKEVDTSKIKTVRRIGKYVLFKYDDNGKTGMGLVSEKDAPKELLDMLARAEREKK
notes: also called NF2; NF-B11
With B2, the Kd was about 3.2 nM in the assay with mouse PD-L1 and about 15 nM with human PD-L1.

By Kd is commonly meant the free concentration of one partner at which half of the binding sites on the other are occupied at equilibrium, for simple one-to-one binding. A low value points to tighter binding.
